One block for each substance: values may come before it.
Columns and labels:
[1] = molecular target: HLA-DP2 with human peptide HU29 (human)
[2] = molecular target: HLA-DP2 with human peptide HU33 (human)
[3] = molecular target: HLA-DP2 with human peptide HU6 (human)
[4] = molecular target: HLA-DP2 with human peptide HU17 (human)
[5] = molecular target: HLA-DP2 with human peptide HU20 (human)
[6] = molecular target: HLA-DP2 with human peptide HU5 (human)
[7] = molecular target: HLA-DP2 with human peptide HU35 (human)
[8] = molecular target: HLA-DP2 with human peptide HU9 (human)
[9] = molecular target: HLA-DP2 with human peptide HU1 (human)
[10] = molecular target: HLA-DP2 with human peptide HU38 (human)
[11] = molecular target: HLA-DP2 with human peptide HU21 (human)
[12] = molecular target: HLA-DP2 with human peptide HU2 (human)
[13] = molecular target: HLA-DP2 with human peptide HU24 (human)
[14] = molecular target: HLA-DP2 with human peptide HU31 (human)
[15] = molecular target: HLA-DP2 with human peptide HU3 (human)
[16] = molecular target: HLA-DP2 with human peptide HU22 (human)
[17] = molecular target: HLA-DP2 with human peptide HU19 (human)
[18] = molecular target: HLA-DP2 with human peptide HU15 (human)
[19] = molecular target: HLA-DP2 with human peptide HU39 (human)
[20] = molecular target: HLA-DP2 with human peptide HU25 (human)
[21] = molecular target: HLA-DP2 with human peptide HU28 (human)
[22] = molecular target: HLA-DP2 with human peptide HU11 (human)
[23] = molecular target: HLA-DP2 with human peptide HU8 (human)
[24] = molecular target: HLA-DP2 with human peptide HU16 (human)
[25] = molecular target: HLA-DP2 with human peptide HU10 (human)
[26] = molecular target: HLA-DP2 with human peptide HU7 (human)

IL-2 secretion of AV9 hybridoma, 0.5 µg/ml peptide, 75 µM BeSO4 [1]: 4.6 pg/mL
IL-2 secretion of AV9 hybridoma, 0.5 µg/ml peptide, 75 µM BeSO4 [2]: 954 pg/mL
IL-2 secretion of AV9 hybridoma, 0.5 µg/ml peptide, 75 µM BeSO4 [3]: 4.1 pg/mL
IL-2 secretion of AV9 hybridoma, 0.5 µg/ml peptide, 75 µM BeSO4 [4]: 16.3 pg/mL
IL-2 secretion of AV9 hybridoma, 0.5 µg/ml peptide, 75 µM BeSO4 [5]: 4.6 pg/mL
IL-2 secretion of AV9 hybridoma, 0.5 µg/ml peptide, 75 µM BeSO4 [6]: 4.6 pg/mL
IL-2 secretion of AV9 hybridoma, 0.5 µg/ml peptide, 75 µM BeSO4 [7]: 1040 pg/mL
IL-2 secretion of AV9 hybridoma, 0.5 µg/ml peptide, 75 µM BeSO4 [8]: 48.6 pg/mL
IL-2 secretion of AV9 hybridoma, 0.5 µg/ml peptide, 75 µM BeSO4 [9]: 1120 pg/mL
IL-2 secretion of AV9 hybridoma, 0.5 µg/ml peptide, 75 µM BeSO4 [10]: 5.1 pg/mL
IL-2 secretion of AV9 hybridoma, 0.5 µg/ml peptide, 75 µM BeSO4 [11]: 48.8 pg/mL
IL-2 secretion of AV9 hybridoma, 0.5 µg/ml peptide, 75 µM BeSO4 [12]: 966 pg/mL
IL-2 secretion of AV9 hybridoma, 0.5 µg/ml peptide, 75 µM BeSO4 [13]: 4.6 pg/mL
IL-2 secretion of AV9 hybridoma, 0.5 µg/ml peptide, 75 µM BeSO4 [14]: 1040 pg/mL
IL-2 secretion of AV9 hybridoma, 0.5 µg/ml peptide, 75 µM BeSO4 [15]: 75.1 pg/mL
IL-2 secretion of AV9 hybridoma, 0.5 µg/ml peptide, 75 µM BeSO4 [16]: 4.1 pg/mL
IL-2 secretion of AV9 hybridoma, 0.5 µg/ml peptide, 75 µM BeSO4 [17]: 4.6 pg/mL
IL-2 secretion of AV9 hybridoma, 0.5 µg/ml peptide, 75 µM BeSO4 [18]: 49.3 pg/mL
IL-2 secretion of AV9 hybridoma, 0.5 µg/ml peptide, 75 µM BeSO4 [19]: 68.7 pg/mL
IL-2 secretion of AV9 hybridoma, 0.5 µg/ml peptide, 75 µM BeSO4 [20]: 847 pg/mL
IL-2 secretion of AV9 hybridoma, 0.5 µg/ml peptide, 75 µM BeSO4 [21]: 4.6 pg/mL
IL-2 secretion of AV9 hybridoma, 0.5 µg/ml peptide, 75 µM BeSO4 [22]: 5.6 pg/mL
Substance: AV9 TCR on the T cell hybridoma AV9

IL-2 secretion of AV22 hybridoma, 0.5 µg/ml peptide, 75 µM BeSO4 [23]: 4.6 pg/mL
IL-2 secretion of AV22 hybridoma, 0.5 µg/ml peptide, 75 µM BeSO4 [24]: 4.6 pg/mL
IL-2 secretion of AV22 hybridoma, 0.5 µg/ml peptide, 75 µM BeSO4 [4]: 15.6 pg/mL
IL-2 secretion of AV22 hybridoma, 0.5 µg/ml peptide, 75 µM BeSO4 [5]: 4.6 pg/mL
IL-2 secretion of AV22 hybridoma, 0.5 µg/ml peptide, 75 µM BeSO4 [6]: 4.1 pg/mL
IL-2 secretion of AV22 hybridoma, 0.5 µg/ml peptide, 75 µM BeSO4 [7]: 947 pg/mL
IL-2 secretion of AV22 hybridoma, 0.5 µg/ml peptide, 75 µM BeSO4 [8]: 21.7 pg/mL
IL-2 secretion of AV22 hybridoma, 0.5 µg/ml peptide, 75 µM BeSO4 [9]: 997 pg/mL
IL-2 secretion of AV22 hybridoma, 0.5 µg/ml peptide, 75 µM BeSO4 [10]: 5.6 pg/mL
IL-2 secretion of AV22 hybridoma, 0.5 µg/ml peptide, 75 µM BeSO4 [11]: 17.4 pg/mL
IL-2 secretion of AV22 hybridoma, 0.5 µg/ml peptide, 75 µM BeSO4 [12]: 716 pg/mL
IL-2 secretion of AV22 hybridoma, 0.5 µg/ml peptide, 75 µM BeSO4 [14]: 973 pg/mL
IL-2 secretion of AV22 hybridoma, 0.5 µg/ml peptide, 75 µM BeSO4 [15]: 29.3 pg/mL
IL-2 secretion of AV22 hybridoma, 0.5 µg/ml peptide, 75 µM BeSO4 [16]: 5.1 pg/mL
IL-2 secretion of AV22 hybridoma, 0.5 µg/ml peptide, 75 µM BeSO4 [17]: 4.1 pg/mL
IL-2 secretion of AV22 hybridoma, 0.5 µg/ml peptide, 75 µM BeSO4 [19]: 22.4 pg/mL
IL-2 secretion of AV22 hybridoma, 0.5 µg/ml peptide, 75 µM BeSO4 [20]: 622 pg/mL
IL-2 secretion of AV22 hybridoma, 0.5 µg/ml peptide, 75 µM BeSO4 [25]: 5.1 pg/mL
IL-2 secretion of AV22 hybridoma, 0.5 µg/ml peptide, 75 µM BeSO4 [26]: 4.1 pg/mL
Substance: AV22 TCR on the T cell hybridoma AV22

— publication PMC3698527
